Measured values: patent US20210347873A1 (SHANGHAI PHARMAEXPLORER, published 2021)

How the values were obtained:
[1] = biological target: biotinylated hBLyS-ECD (human) (UniProt Q9Y275); assay: ELISA, coated antibody; biotinylated hBLyS-ECD 0.5 ng/mL
[2] = biological target: biotinylated hBLyS-ECD (human) (UniProt Q9Y275); assay: ELISA, coated antibody; biotinylated hBLyS-ECD 0.000006 ng/mL
[3] = biological target: biotinylated hBLyS-ECD (human) (UniProt Q9Y275); assay: ELISA, coated antibody; biotinylated hBLyS-ECD 0.1 ng/mL
[4] = biological target: biotinylated hBLyS-ECD (human) (UniProt Q9Y275); assay: ELISA, coated antibody; biotinylated hBLyS-ECD 0.00016 ng/mL
[5] = biological target: biotinylated hBLyS-ECD (human) (UniProt Q9Y275); assay: ELISA, coated antibody; biotinylated hBLyS-ECD 0.004 ng/mL
[6] = biological target: biotinylated hBLyS-ECD (human) (UniProt Q9Y275); assay: ELISA, coated antibody; biotinylated hBLyS-ECD 0.0008 ng/mL
[7] = biological target: biotinylated hBLyS-ECD (human) (UniProt Q9Y275); assay: ELISA, coated antibody; biotinylated hBLyS-ECD 0.02 ng/mL
[8] = biological target: biotinylated hBLyS-ECD (human) (UniProt Q9Y275); assay: ELISA, coated antibody; biotinylated hBLyS-ECD 0.000032 ng/mL
biotinylated hBLyS-ECD [9] = biological target: T1, biotinylated hBLyS-ECD (human, UniProt Q9Y275 134-285, biotinylated with Biotin-X-X-NHS (molar ratio 7:1), sites not stated); assay: ELISA, biotinylated hBLyS-ECD captured on streptavidin; antibody 0.534 nM
T1 construct: The hBLyS-ECD of Embodiment 1 after biotinylation (Embodiment 2); also called biotinylated immunogen; BLyS protein; not shown: His tag of the pCPC vector
Experimental: (§1) Streptavidin was first diluted to a final concentration of 1.0 μg/mL with PBS, and then 50 μL of diluted streptavidin per well was aliquoted into 96-well ELISA plate, which was subsequently sealed with plastic film and incubated at 4° C. overnight. On the next day the plate was washed four times with the plate washing buffer [PBS buffer containing 0.05% (v/v) Tween20] and added with the blocking solution [PBS buffer containing 0.05% (v/v) Tween20 and 1% (w/w) BSA] and blocked for 2 hours at 37° C. The blocking solution was removed, the biotinylated hBLyS-ECD prepared in Embodiment 2 was diluted with PBS to a final concentration of 50 ng/mL and then aliquoted into the 96-well ELISA plate at 50 μL per well and incubated for 1 hour at 37° C. After rinsing the plate four times with the plate washing buffer [PBS buffer containing 0.05% (v/v) Tween20], 100 μl of the purified lead antibody harvested in Embodiment 1 and 2 was pipetted into each well. After incubation for 1 hour at 37° C., the plate was rinsed four times with the plate washing buffer [PBS buffer containing 0.05% (v/v) Tween20]. HRP-labeled (horseradish peroxidase) secondary antibody (purchased from Sigma) was added in and incubated at 37° C. for 1 hour. The plate was then rinsed four times with the plate washing buffer [PBS buffer containing 0.05% (v/v) Tween20]. 100 μL of TMB substrate was aliquoted into each well and after incubation for 5 minutes at room temperature, 100 μL of stop solution (1.0 N HCl) was aliquoted into each well. A₄₅₀ₙₘ values were read via an ELISA plate reader (SpectraMax M5e purchased from Molecular Devices) and the results were shown in FIGS. 5A-5B and Table 10.

biotinylated hBLyS-ECD [10] = biological target: T1, biotinylated hBLyS-ECD; assay: ELISA, biotinylated hBLyS-ECD captured on streptavidin; antibody 0.107 nM
Experimental: as §1

biotinylated hBLyS-ECD [11] = biological target: T1, biotinylated hBLyS-ECD; assay: ELISA, biotinylated hBLyS-ECD captured on streptavidin; antibody 0.0213 nM
Experimental: as §1

biotinylated hBLyS-ECD [12] = biological target: T1, biotinylated hBLyS-ECD; assay: ELISA, biotinylated hBLyS-ECD captured on streptavidin; antibody 0.00427 nM
Experimental: as §1

[13] = biological target: T2, cynomolgus BLyS (full length, arginine 132 mutated to histidine) on CHO-K1 cells (cynomolgus, UniProt Q9Y275 1-285 (human entry)); assay: flow cytometry (FACS) on CHO-K1 cynoBLyS cells, Alexa 488 secondary antibody
T2 construct: also called cyno BLyS; CHO-K1 cynoBLyS
T2 chain: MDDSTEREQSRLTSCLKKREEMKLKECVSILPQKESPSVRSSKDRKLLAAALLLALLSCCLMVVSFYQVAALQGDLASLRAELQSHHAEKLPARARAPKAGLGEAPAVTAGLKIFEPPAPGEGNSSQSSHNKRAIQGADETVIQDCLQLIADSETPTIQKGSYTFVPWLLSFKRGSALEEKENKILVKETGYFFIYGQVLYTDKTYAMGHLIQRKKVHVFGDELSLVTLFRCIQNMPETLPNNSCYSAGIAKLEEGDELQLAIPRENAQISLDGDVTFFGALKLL
Experimental: (§2) The medium was aspirated completely, and the cells were rinsed once with PBS buffer (purchased from Invitrogen) and then treated with cell dispersion solution (TrypLE™ Express Enzyme, purchased from Life technology) and collected. The detailed steps are as follows: the cells were rinsed once with PBS buffer, after counting, the cells were diluted to 2×10⁶ cells/ml with PBS buffer, blocked with 2% (w/w) fetal bovine serum and incubated on ice for 30 minutes. 200 μL of which per well was aliquoted into a 96-well FACS plate and centrifuged at 2000 rpm at 4° C., then each 100 μL of the lead antibodies obtained from Embodiment 1 and 2 were aliquoted into each well and incubated on ice for 1 hour. […] After centrifuged and rinsed 3 times with FACS buffer, cells were suspended with 200 μL of FACS buffer and the results were detected and analyzed by FACS (FACS Calibur, purchased from BD). It was shown in Tables 12-13 that the lead antibody could bind to human BLyS protein on the cell surface and the lead antibody could cross-react with cynomolgus BLyS. The data in the table is MFI, the average fluorescence intensity of the cell population.

[14] = biological target: T3, human BLyS (full length, arginine 132 mutated to histidine) on CHO-K1 cells (human, UniProt Q9Y275 1-285); assay: flow cytometry (FACS) on CHO-K1 hBLyS cells, Alexa 488 secondary antibody
T3 construct: also called hBLyS; CHO-K1 hBLyS
Experimental: as §2

biotinylated hBLyS-ECD [15] = biological target: T1, biotinylated hBLyS-ECD; assay: ELISA: biotinylated hBLyS-ECD captured on streptavidin, antibody titrated, HRP secondary antibody [label printed at the top of D00004]
Experimental: as §1

biotinylated hBLyS-ECD [16] = biological target: T1, biotinylated hBLyS-ECD; assay: ELISA, biotinylated hBLyS-ECD captured on streptavidin; antibody 2.67 nM
Experimental: as §1

biotinylated hBLyS-ECD [17] = biological target: T1, biotinylated hBLyS-ECD; assay: ELISA, biotinylated hBLyS-ECD captured on streptavidin; antibody 0 nM (blank)
Experimental: as §1

biotinylated hBLyS-ECD [18] = biological target: T1, biotinylated hBLyS-ECD; assay: ELISA, biotinylated hBLyS-ECD captured on streptavidin; antibody 66.7 nM
Experimental: as §1

biotinylated hBLyS-ECD [19] = biological target: T1, biotinylated hBLyS-ECD; assay: ELISA, biotinylated hBLyS-ECD captured on streptavidin; antibody 13.3 nM
Experimental: as §1

biotinylated hBLyS-ECD [20] = biological target: T1, biotinylated hBLyS-ECD; assay: receptor-ligand blocking ELISA: BAFF R coated, biotinylated hBLyS-ECD added with titrated antibody, HRP-avidin; blocked partner: BAFF R
biotinylated hBLyS-ECD [21] = biological target: T1, biotinylated hBLyS-ECD; assay: ELISA: biotinylated hBLyS-ECD captured on streptavidin, antibody titrated, HRP secondary antibody
biotinylated hBLyS-ECD [22] = biological target: T1, biotinylated hBLyS-ECD; assay: as above; remark: listed apart in the source

T3 sequence (Q9Y275 other isoform, or with tags, fused parts or gaps limits assumed, change not shown): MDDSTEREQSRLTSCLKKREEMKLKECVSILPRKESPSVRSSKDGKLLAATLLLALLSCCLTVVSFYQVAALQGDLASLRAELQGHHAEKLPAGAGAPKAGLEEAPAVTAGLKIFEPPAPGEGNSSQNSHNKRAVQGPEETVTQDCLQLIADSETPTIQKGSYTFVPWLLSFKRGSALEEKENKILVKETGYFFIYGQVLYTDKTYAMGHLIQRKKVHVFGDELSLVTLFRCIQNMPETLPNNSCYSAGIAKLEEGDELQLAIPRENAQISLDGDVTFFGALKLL

BLyS antibody (purchased from GSK)
OD450 nm [1]: 3.39 | OD450 nm [2]: 0.08 | OD450 nm [3]: 3.36 | OD450 nm [4]: 0.54 | OD450 nm [5]: 3.14 | OD450 nm [6]: 2.01 | OD450 nm [7]: 3.24 | OD450 nm [8]: 0.19

B1: 8E7D9C7F5 (antibody, V domains shown)
VH: QVQLQQSGVELARPGASVKLSCKASGYTFTSYGISWVKQRTGQALEWIGEIYPRSGNTYYNEKFKGKATLTADKSSSTAYMELRSLTSEDSAVYFCARSGPITTLVATDYGMDYWGQGTSVTVSS
VL: DIVLTQSPASLAVSLGQRATISCRASKSVSTSSYSYMHWYQQKPGQPPKLLIKFASNLESGVPARFSGSGSGTDFTLNIHPVEEEDAATYYCQHSREFPYTFGGGTKLEIK
notes: Mouse hybridoma antibody purified on Protein G
OD450 nm (biotinylated hBLyS-ECD [9]): 2.06 | OD450 nm (biotinylated hBLyS-ECD [10]): 0.946 | OD450 nm (biotinylated hBLyS-ECD [11]): 0.291 | OD450 nm (biotinylated hBLyS-ECD [12]): 0.115 | EC50 (read off the curve) [13]: ~0.1 nM | EC50 (read off the curve) [14]: ~0.1 nM | EC50 (read off the curve) (biotinylated hBLyS-ECD [15]): ~0.2 nM | OD450 nm (biotinylated hBLyS-ECD [16]): 2.53 | OD450 nm (biotinylated hBLyS-ECD [17]): 0.0564 | OD450 nm (biotinylated hBLyS-ECD [18]): 2.72 | OD450 nm (biotinylated hBLyS-ECD [19]): 2.56

B2: c97A3C2H4 (antibody, human IgG1, V domains shown)
VH: EVKLVESGGGLVQPGGSLKLSCAASGFTFSTYTMSWVRQTPEKRLEWVAYISYGGGSTSYPDTVKGRFTISRDNAKNTLYLQMSSLKSEDTAIYYCTRHVTVVENSMDYWGQGTSVTVSS
VL: DILLTQSPDILSVSPGERVSFSCRASQSIGTSIHWYQQRTNGSPRLLIKYVSESFSGTPSRFSGSGSGTAFTLTINSVESEDIADYYCQQTHSWPWTFGGGTKLEIK
notes: also called BLyS chimeric antibody
IC50 (read off the curve) (biotinylated hBLyS-ECD [20]): ~2 nM | EC50 (read off the curve) (biotinylated hBLyS-ECD [21]): ~0.05 nM | EC50 (read off the curve) (biotinylated hBLyS-ECD [22]): ~0.1 nM

B3: c111D10D6G3 (antibody, human IgG1, V domains shown)
VH: QVQLQQPGAELVKPGASVKMSCKASGYTFTRHWITWVKQRPGQGLEWIGDIFPGSGSINYNEKFKSEATLTVEKSSSTAYMQLSSLTSEDSAVYYCARGDVDVWGTGTTVTVSS
VL: DIQMTQSPSSLSASLGERVSLTCRASQEIRGYLSWLQQKPNGTIKRLIYAASTLDSGVPKRFSATRSGSDFSLTISSLESEDFADYYCLQYASYPFTFGSGTKLEIK
notes: as for B2
IC50 (read off the curve) (biotinylated hBLyS-ECD [20]): ~0.08 nM | EC50 (read off the curve) (biotinylated hBLyS-ECD [21]): ~0.07 nM
